In the supplement of paper PMC7877785:
± gives the uncertainty stated by the source.

Experiment: self-splicing fitness, log relative to wild type (ln ratio); higher = more splicing; Tetrahymena group I intron in knt gene, E. coli kanamycin selection, DiMSum; sequences stand for … in CUCUCU…GGAGGGAAAAGUUAUCAGGCAUGCACCUGGUAGCUAGUCUUUAAACCAAUAGAUUGCAUCGGUUUAAAAGGCAAGACCGUCAAAUUGCGGGAAAGGGGUCAACAGCCGUUCAGUACCAAGUCUCAGGGGAAACUUUGAGAUGGCCUUGCAAAGGGUAUGGUAAUAAGCUGACGGACAUGGUCCUAACCACGCAGCCAAGUCCUAAGUCAACAGAUCUUCUGUUGAUAUGGAUGCAGUUCACAGACUAAAUGUCGGUCGGGGAAGAUGUAUUCUUCUCAUAAGAUAUAGUCGGACCUCUCCUUAAUGGGAGCUAGCGGAUGAAGUGAUGCAACACUGGAGCCGCUGGGAACUAAUUUGUAUGCGAAAGUAUAUUGAUUAGUUUUGGAGUACUCGUGGUCG
In short: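 A randomised library covering all eight P1ex-region intron nucleotides was built with the intron in the knt kanamycin-resistance gene on pET-22b(+) and held in E. coli BL21(DE3). Cells were grown overnight at 37°C or 30°C on LB agar, with or without 25 μg/mL kanamycin, plus 100 μg/mL carbenicillin, 50 μM IPTG and 0.2% rhamnose, and pooled colonies were amplicon-sequenced on an Illumina HiSeq 2500. DiMSum fitness is the error-weighted combination of wild-type-normalised replicate fold changes, kanamycin versus none.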

GGCAAGCAAUAUUACGGCAC
self-splicing fitness (ln) (30 °C): -0.671 ± 0.071
self-splicing fitness (ln) (37 °C): 0.369 ± 0.12

AGUCAGCAAUAUUACGAAUG
self-splicing fitness (ln) (30 °C): -1.62 ± 0.09
self-splicing fitness (ln) (37 °C): -0.853 ± 0.11

ACAGAGCAAUAUUACGUUAC
self-splicing fitness (ln) (30 °C): -3 ± 0.15
self-splicing fitness (ln) (37 °C): -2.96 ± 0.25

GUACAGCAAUAUUACGAACC
self-splicing fitness (ln) (30 °C): -1.19 ± 0.14
self-splicing fitness (ln) (37 °C): -0.582 ± 0.18

GCUUAGCAAUAUUACGCCCU
self-splicing fitness (ln) (30 °C): -1.54 ± 0.11
self-splicing fitness (ln) (37 °C): -0.719 ± 0.13

UACAAGCAAUAUUACGUAGU
self-splicing fitness (ln) (30 °C): -3.88 ± 0.17
self-splicing fitness (ln) (37 °C): -2.18 ± 0.15

UGUAAGCAAUAUUACGAACA
self-splicing fitness (ln) (30 °C): -0.358 ± 0.14
self-splicing fitness (ln) (37 °C): 0.219 ± 0.17

GCUUAGCAAUAUUACGUAGC
self-splicing fitness (ln) (30 °C): -3.12 ± 0.26
self-splicing fitness (ln) (37 °C): -1.75 ± 0.26

GCCGAGCAAUAUUACGUCAU
self-splicing fitness (ln) (30 °C): -3.5 ± 0.25
self-splicing fitness (ln) (37 °C): -1.31 ± 0.17

ACACAGCAAUAUUACGUUGU
self-splicing fitness (ln) (30 °C): -2.31 ± 0.09
self-splicing fitness (ln) (37 °C): -2.6 ± 0.14

GCGAAGCAAUAUUACGCUUU
self-splicing fitness (ln) (30 °C): -2.27 ± 0.19
self-splicing fitness (ln) (37 °C): -2.03 ± 0.4

UACUAGCAAUAUUACGAAGC
self-splicing fitness (ln) (30 °C): -2.06 ± 0.38
self-splicing fitness (ln) (37 °C): -3.04 ± 0.43

UCUGAGCAAUAUUACGCGGC
self-splicing fitness (ln) (30 °C): -4.16 ± 0.47
self-splicing fitness (ln) (37 °C): -3.58 ± 0.33

UAGAAGCAAUAUUACGCUCA
self-splicing fitness (ln) (30 °C): 0.205 ± 0.16
self-splicing fitness (ln) (37 °C): -0.337 ± 0.18

UGUUAGCAAUAUUACGAGUU
self-splicing fitness (ln) (30 °C): -3.66 ± 0.28
self-splicing fitness (ln) (37 °C): -1.85 ± 0.19

AUUUAGCAAUAUUACGUGUU
self-splicing fitness (ln) (30 °C): -1.73 ± 0.14
self-splicing fitness (ln) (37 °C): 0.39 ± 0.14

GUCCAGCAAUAUUACGGUCG
self-splicing fitness (ln) (30 °C): -0.533 ± 0.071
self-splicing fitness (ln) (37 °C): -0.131 ± 0.097

UAUGAGCAAUAUUACGAGAU
self-splicing fitness (ln) (37 °C): -2.19 ± 0.3

CUUUAGCAAUAUUACGUGGG
self-splicing fitness (ln) (30 °C): -3.1 ± 0.17
self-splicing fitness (ln) (37 °C): -2.96 ± 0.27

GUAGAGCAAUAUUACGUCGC
self-splicing fitness (ln) (30 °C): -0.635 ± 0.15
self-splicing fitness (ln) (37 °C): -0.21 ± 0.18

ACUGAGCAAUAUUACGCUUG
self-splicing fitness (ln) (30 °C): -3.28 ± 0.3
self-splicing fitness (ln) (37 °C): -2.75 ± 0.31

GACCAGCAAUAUUACGGGCC
self-splicing fitness (ln) (30 °C): -3.69 ± 0.15
self-splicing fitness (ln) (37 °C): -2.26 ± 0.21

AACGAGCAAUAUUACGUCAA
self-splicing fitness (ln) (30 °C): -3.08 ± 0.23
self-splicing fitness (ln) (37 °C): -3.35 ± 0.3

UAAAAGCAAUAUUACGAUGU
self-splicing fitness (ln) (30 °C): -2.44 ± 0.15
self-splicing fitness (ln) (37 °C): -1.33 ± 0.19

GCCGAGCAAUAUUACGUAAG
self-splicing fitness (ln) (30 °C): -2.26 ± 0.13
self-splicing fitness (ln) (37 °C): -1.09 ± 0.12

AGGAAGCAAUAUUACGUAGG
self-splicing fitness (ln) (30 °C): -3 ± 0.15
self-splicing fitness (ln) (37 °C): -2.3 ± 0.23

UGGUAGCAAUAUUACGAUAU
self-splicing fitness (ln) (30 °C): -2.62 ± 0.16
self-splicing fitness (ln) (37 °C): -1.62 ± 0.16

AAUGAGCAAUAUUACGCCGU
self-splicing fitness (ln) (37 °C): -2.55 ± 0.26

UGUAAGCAAUAUUACGGAAC
self-splicing fitness (ln) (30 °C): -2.78 ± 0.27
self-splicing fitness (ln) (37 °C): -1.77 ± 0.26

CGCGAGCAAUAUUACGGAUA
self-splicing fitness (ln) (30 °C): -1.66 ± 0.27

CCGCAGCAAUAUUACGCAUC
self-splicing fitness (ln) (30 °C): -3.93 ± 0.28
self-splicing fitness (ln) (37 °C): -1.95 ± 0.22

AACGAGCAAUAUUACGAGGA
self-splicing fitness (ln) (30 °C): -2.36 ± 0.28
self-splicing fitness (ln) (37 °C): -2.34 ± 0.42

UCUUAGCAAUAUUACGCCGU
self-splicing fitness (ln) (30 °C): -2.05 ± 0.16
self-splicing fitness (ln) (37 °C): -0.32 ± 0.17

UUUUAGCAAUAUUACGACUU
self-splicing fitness (ln) (30 °C): -1.64 ± 0.32
self-splicing fitness (ln) (37 °C): -1.14 ± 0.33

CCCUAGCAAUAUUACGCAGC
self-splicing fitness (ln) (30 °C): -3 ± 0.17
self-splicing fitness (ln) (37 °C): -3.24 ± 0.35

GCUGAGCAAUAUUACGUGUG
self-splicing fitness (ln) (30 °C): -3.29 ± 0.12
self-splicing fitness (ln) (37 °C): -1.9 ± 0.1

UCUCAGCAAUAUUACGAGCU
self-splicing fitness (ln) (30 °C): -1.48 ± 0.086
self-splicing fitness (ln) (37 °C): -0.552 ± 0.12

GGGGAGCAAUAUUACGAUUC
self-splicing fitness (ln) (30 °C): -1.52 ± 0.16
self-splicing fitness (ln) (37 °C): -0.791 ± 0.2

GCAGAGCAAUAUUACGAACC
self-splicing fitness (ln) (30 °C): -1.87 ± 0.32
self-splicing fitness (ln) (37 °C): -1.24 ± 0.33

UAAUAGCAAUAUUACGAUAC
self-splicing fitness (ln) (30 °C): -3.78 ± 0.43

GCCGAGCAAUAUUACGACUC
self-splicing fitness (ln) (30 °C): -3.37 ± 0.48
self-splicing fitness (ln) (37 °C): 0.198 ± 0.28

AUGCAGCAAUAUUACGGCGC
self-splicing fitness (ln) (30 °C): -0.143 ± 0.17
self-splicing fitness (ln) (37 °C): 0.107 ± 0.18

CUAAAGCAAUAUUACGUCUA
self-splicing fitness (ln) (30 °C): -4.21 ± 0.27
self-splicing fitness (ln) (37 °C): -2.2 ± 0.22

GUGAAGCAAUAUUACGUUGU
self-splicing fitness (ln) (30 °C): -2.68 ± 0.17
self-splicing fitness (ln) (37 °C): -1.63 ± 0.15

AUUAAGCAAUAUUACGGUCG
self-splicing fitness (ln) (30 °C): -1.59 ± 0.11
self-splicing fitness (ln) (37 °C): -0.942 ± 0.12

CAUAAGCAAUAUUACGUGCA
self-splicing fitness (ln) (30 °C): -3.45 ± 0.23
self-splicing fitness (ln) (37 °C): -2.4 ± 0.18

AUGAAGCAAUAUUACGAGUC
self-splicing fitness (ln) (37 °C): -2.69 ± 0.24

CUUAAGCAAUAUUACGCAAA
self-splicing fitness (ln) (30 °C): -2.76 ± 0.4

CAUCAGCAAUAUUACGCCUG
self-splicing fitness (ln) (30 °C): -0.718 ± 0.092
self-splicing fitness (ln) (37 °C): -0.495 ± 0.098

CAUGAGCAAUAUUACGCUAA
self-splicing fitness (ln) (37 °C): -2.94 ± 0.43

GCUCAGCAAUAUUACGGGAA
self-splicing fitness (ln) (30 °C): -0.173 ± 0.099
self-splicing fitness (ln) (37 °C): 0.252 ± 0.16

CACUAGCAAUAUUACGUGGG
self-splicing fitness (ln) (30 °C): -3.99 ± 0.2
self-splicing fitness (ln) (37 °C): -3.1 ± 0.22

CAAAAGCAAUAUUACGUGAG
self-splicing fitness (ln) (30 °C): -1.06 ± 0.04
self-splicing fitness (ln) (37 °C): -0.328 ± 0.069

GUGAAGCAAUAUUACGCUAC
self-splicing fitness (ln) (30 °C): -3.39 ± 0.27
self-splicing fitness (ln) (37 °C): -1.95 ± 0.31

CAUGAGCAAUAUUACGGUGC
self-splicing fitness (ln) (30 °C): -3.35 ± 0.28
self-splicing fitness (ln) (37 °C): -3 ± 0.26

AGUGAGCAAUAUUACGUCCA
self-splicing fitness (ln) (30 °C): -2.89 ± 0.36
self-splicing fitness (ln) (37 °C): -1 ± 0.27

CUACAGCAAUAUUACGCGCA
self-splicing fitness (ln) (30 °C): -3.72 ± 0.22
self-splicing fitness (ln) (37 °C): -2.12 ± 0.19

UGCAAGCAAUAUUACGGCGU
self-splicing fitness (ln) (30 °C): -1.24 ± 0.071
self-splicing fitness (ln) (37 °C): -0.6 ± 0.091

CCCUAGCAAUAUUACGAGGA
self-splicing fitness (ln) (30 °C): -1.66 ± 0.074
self-splicing fitness (ln) (37 °C): -0.53 ± 0.075

CUCGAGCAAUAUUACGAAAA
self-splicing fitness (ln) (30 °C): -1.93 ± 0.44

AUUAAGCAAUAUUACGUUAU
self-splicing fitness (ln) (30 °C): -1.22 ± 0.097
self-splicing fitness (ln) (37 °C): -1.1 ± 0.15

AGUUAGCAAUAUUACGGUUG
self-splicing fitness (ln) (30 °C): -3.09 ± 0.24
self-splicing fitness (ln) (37 °C): -1.99 ± 0.22

AAUGAGCAAUAUUACGCUCU
self-splicing fitness (ln) (30 °C): -3.18 ± 0.19
self-splicing fitness (ln) (37 °C): -3.53 ± 0.23

AGGCAGCAAUAUUACGUUGA
self-splicing fitness (ln) (30 °C): -2.42 ± 0.11
self-splicing fitness (ln) (37 °C): -1.25 ± 0.1

AUAGAGCAAUAUUACGGUCA
self-splicing fitness (ln) (30 °C): -1.48 ± 0.14
self-splicing fitness (ln) (37 °C): -0.634 ± 0.21

AACAAGCAAUAUUACGAUCG
self-splicing fitness (ln) (30 °C): -1.4 ± 0.076
self-splicing fitness (ln) (37 °C): -0.996 ± 0.097

GCCGAGCAAUAUUACGCACA
self-splicing fitness (ln) (30 °C): -1.22 ± 0.2
self-splicing fitness (ln) (37 °C): -1.51 ± 0.19

GUGAAGCAAUAUUACGAACG
self-splicing fitness (ln) (30 °C): -1.57 ± 0.4

CUUCAGCAAUAUUACGGAGG
self-splicing fitness (ln) (30 °C): -3.09 ± 0.21
self-splicing fitness (ln) (37 °C): -2.09 ± 0.26

CUCUAGCAAUAUUACGCUUC
self-splicing fitness (ln) (30 °C): -2.62 ± 0.27
self-splicing fitness (ln) (37 °C): -2.39 ± 0.34

GCUCAGCAAUAUUACGAACA
self-splicing fitness (ln) (30 °C): -0.688 ± 0.088
self-splicing fitness (ln) (37 °C): -0.676 ± 0.1

CAUCAGCAAUAUUACGAAGA
self-splicing fitness (ln) (30 °C): -2.97 ± 0.27
self-splicing fitness (ln) (37 °C): -0.441 ± 0.15

GACCAGCAAUAUUACGAGGC
self-splicing fitness (ln) (30 °C): -3.02 ± 0.13
self-splicing fitness (ln) (37 °C): -0.778 ± 0.091

ACCAAGCAAUAUUACGCCUC
self-splicing fitness (ln) (30 °C): -2.34 ± 0.22
self-splicing fitness (ln) (37 °C): -0.371 ± 0.18

UUCAAGCAAUAUUACGCUUU
self-splicing fitness (ln) (30 °C): -5.08 ± 0.41
self-splicing fitness (ln) (37 °C): -2.37 ± 0.28

CGGCAGCAAUAUUACGUGAC
self-splicing fitness (ln) (30 °C): -3.9 ± 0.13
self-splicing fitness (ln) (37 °C): -1.22 ± 0.1

AUGGAGCAAUAUUACGCCAG
self-splicing fitness (ln) (30 °C): -2.26 ± 0.35

GAGUAGCAAUAUUACGCCGC
self-splicing fitness (ln) (30 °C): -2.89 ± 0.25
self-splicing fitness (ln) (37 °C): -1.29 ± 0.33
